# Laboratory results taken from PMC5437702.
# Target: activatory Fc gamma receptor III (FcγRIII), mouse (mouse) (UniProt P08508)
# Experiment: SPR
# UniProt P08508, sequence (P08508 31-261): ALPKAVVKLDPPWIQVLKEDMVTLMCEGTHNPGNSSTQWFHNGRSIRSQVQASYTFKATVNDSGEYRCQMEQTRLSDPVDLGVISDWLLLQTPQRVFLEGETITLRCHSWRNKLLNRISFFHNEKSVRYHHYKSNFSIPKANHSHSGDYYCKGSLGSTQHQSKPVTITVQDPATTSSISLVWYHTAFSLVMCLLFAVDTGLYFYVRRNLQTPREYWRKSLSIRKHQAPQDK
substance,measurement,value
anti-CD25 clone PC-61 rat IgG1 (αCD25-r1) (antibody),A/I ratio (affinity for activatory FcγRIII against inhibitory FcγRIIb),< 1
